This note sets out measurements from patent US20210403565A1 (BIOATLA, published 2021).

Test [1] addresses T1, recombinant human CTLA4 extracellular domain (human, UniProt P16410 36-161).
T1 construct: extracellular domain; also called huCTLA-4
T1 sequence (looked up): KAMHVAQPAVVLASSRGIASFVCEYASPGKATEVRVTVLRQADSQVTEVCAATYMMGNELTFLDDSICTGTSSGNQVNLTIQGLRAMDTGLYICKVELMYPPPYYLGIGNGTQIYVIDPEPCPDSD
Nature of the test: ELISA, immobilised huCTLA-4, table head pH 7.0 (text: pH 7.4), Jul. 11, 2017.

Test [2] concerns the target T1, recombinant human CTLA4 extracellular …. Nature of the test: ELISA, immobilised huCTLA-4, table head pH 7.0 (text: pH 7.4), Jun. 29, 2017. (An ELISA detects its analyte on a solid surface through an enzyme-linked reagent.)
Test [3] shares this target. Nature of the test: ELISA, wells coated with human CTLA4, assay pH 7.4; lot 6972 in His buffer, T0; unit from the axis Log[ng/mL]. As for the experimental part:
(§1) Both ELISA and FACS analysis were used to measure the binding activity. […] The amount of bound antibodies was quantified using anti-human IgG antibody conjugated to HRP. The absorbance at 450 nm in each measurement was proportional to the amount of antibodies bound. […] EC50 value (in ng/mL) for binding to human CTLA4 was determined by absorbance at 450 nm against antibody concentration with Prism variable slope of four-parameter dose-response curve, which was calculated using the nonlinear fit (variable slope, four parameters) model built into GraphPad Prism software (version 7.03). The buffers tested included His buffer (His), Tris buffer (Tris), Glutamine buffer (Glu) and no buffer.

The target is the same in test [4]. Nature of the test: ELISA, wells coated with human CTLA4, assay pH 6.0; lot 6972 in His buffer, T2W; unit from the axis Log[ng/mL]. The procedure: as §1
Test [5] has the same target. Nature of the test: ELISA, wells coated with human CTLA4, assay pH 6.0; lot 6972 in Tris buffer, T2W; unit from the axis Log[ng/mL]. The procedure: as §1
In test [6] the target is T2, human CTLA4 expressed on the cell surface of CHO cells (human, UniProt P16410 36-223).
T2 construct: whole, on cells; also called CHO-huCTLA4; huCTLA4
T2 sequence (looked up): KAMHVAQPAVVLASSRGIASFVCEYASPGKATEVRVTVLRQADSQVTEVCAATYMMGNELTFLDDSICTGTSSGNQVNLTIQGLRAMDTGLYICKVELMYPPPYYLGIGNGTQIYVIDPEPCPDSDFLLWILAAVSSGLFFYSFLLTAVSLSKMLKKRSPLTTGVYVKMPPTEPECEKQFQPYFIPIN
Nature of the test: FACS, cells expressing human CTLA4, assay pH 7.4, MFI; lot 6972 in Glu buffer, T0; unit from the axis Log[ng/mL]. The procedure:
(§2) The amount of bound antibodies was quantified using anti-human IgG antibody conjugated to fluorophores. The MFI in each reaction was proportional to the amount of antibodies bound. The EC₅₀ value (in ng/mL) for binding to human CTLA4 on cells was determined by MFI of the singlets population against antibody concentration with a Prism variable slope of four-parameter dose-response curve, which was calculated using the nonlinear fit (variable slope, four parameters) model built into GraphPad Prism software (version 7.03).
A general note: Flow cytometry measures light scatter and fluorescence of single cells or particles in a stream.

In test [7] the target is T2, human CTLA4 expressed on the cell …. Nature of the test: FACS, cells expressing human CTLA4, assay pH 7.4, MFI; lot 6972 in His buffer, T2W; unit from the axis Log[ng/mL]. The procedure: as §2
The target is the same in test [8]. Nature of the test: FACS, cells expressing human CTLA4, assay pH 6.0, MFI; lot 6972 in Tris buffer, T0; unit from the axis Log[ng/mL]. The procedure: as §2
The target is the same in test [9]. Nature of the test: FACS, cells expressing human CTLA4, assay pH 7.4, MFI; lot 6972 in Tris buffer, T0; unit from the axis Log[ng/mL]. The procedure: as §2
For test [10] the target is unchanged. Nature of the test: FACS, cells expressing human CTLA4, assay pH 6.0, MFI; lot 6972 in Tris buffer, T2W; unit from the axis Log[ng/mL]. The procedure: as §2
For test [11] the target is unchanged. Nature of the test: FACS, cells expressing human CTLA4, assay pH 7.4, MFI; lot 6972 in Tris buffer, T2W; unit from the axis Log[ng/mL]. The procedure: as §2
Test [12] has as its target T1, recombinant human CTLA4 extracellular …. Nature of the test: ELISA, wells coated with human CTLA4, assay pH 7.4; lot 6972 without test buffer; same column repeated in FIG. 9B and FIG. 9C; unit from the axis Log[ng/mL]. As for the experimental part: as §1
For test [13] the target is unchanged. Nature of the test: ELISA, wells coated with human CTLA4, assay pH 6.0; lot 6978 in His buffer, T2W; unit from the axis Log[ng/mL]. The procedure:
as §1

Test [14] shares this target. Nature of the test: ELISA, wells coated with human CTLA4, assay pH 6.0; lot 6978 in Glu buffer, T2W; unit from the axis Log[ng/mL]. The procedure:
as §1

Test [15] has as its target T2, human CTLA4 expressed on the cell …. Nature of the test: FACS, cells expressing human CTLA4, assay pH 7.4, MFI; lot 6978 in His buffer, T0; unit from the axis Log[ng/mL]. As for the experimental part:
as §2

Test [16] addresses T1, recombinant human CTLA4 extracellular …. Nature of the test: ELISA, wells coated with human CTLA4, assay pH 7.4; lot 6978 in Tris buffer, T2W; curve still rising at log 3 (OD450 at most about 0.3), no plateau; unit from the axis Log[ng/mL]. The procedure: as §1

B1: BA-087-05-19 (antibody, V domains shown)
VH: EVQLVESGGGLVQPGGSLRLSCAASGFTFSHYTMHWVRQAPGKGLEWVSFISYDGNNKYYADSVKGRFTISRDNSKNTLYLQMNSLRAEDTAVYYCARTGWLGPFDYWGQGTLVTVSS
VL: AIQLTQSPSSLSASVGDRVTITCRASQYVGSSYLAWYLQKPGQSPQLLIYGAFSRATGIPARFSGSGSGTEFTLTISSLQSEDFAVYYCQQDGSSPWTFGQGTKVEIK
notes: Detected with anti-human IgG and a molecular weight of 146 kDa was used in SPR, so it was tested as a whole IgG; also called BA-087-05-019; BA-087-05-19 (# 6972)
Broadly, the EC50 is the concentration needed to bring the measured effect to its halfway point. For B1, the EC50 in [1] was 0.0502 µg/mL; in test [2], 0.0934 µg/mL; in test [3] it was 0.0544 µg/mL; in test [4], 0.00704 µg/mL; in test [5], 0.0101 µg/mL; in test [6], 0.462 µg/mL. Also, the EC50 in test [7] is 0.615 µg/mL; in test [8] it was 0.291 µg/mL; in [9] it was 0.681 µg/mL; in test [10], 0.352 µg/mL; in test [11] it was 0.537 µg/mL; in [12], 0.0546 µg/mL.

B2: BA-087-08-32 (antibody, V domains shown)
VH: EVQLVQSGAEVKKPGATVKISCKVSGFTFSHYTMHWIRQSPSRGLEWLGFISYDGNYKYYADSVKGRFTISRDNAKNSLYLQMNSLRAEDTAVYYCARTGWLGPFDYWGQGTLVTVSS
VL: EIVMTQSPATLSVSPGERATLSCRASQSVGSSYLAWYQQKPGKAPKLLIYGAFSRATGVPSRFSGSGSGTDFTLTISSLQPEDFATYYCQQDGSSPWTFGQGTKVEIK
notes: Detected with anti-human IgG and a molecular weight of 146 kDa was used in SPR, so it was tested as a whole IgG; also called BA-087-08-032; BA-087-08-32 (# 6978)
Take B2: the EC50 came out at 0.0441 µg/mL in test [13], 0.0123 µg/mL in test [14], 0.849 µg/mL in test [15] and 1.49 µg/mL in [16].
